Assay results as given in IntAct's records for PubMed 19675567.

B1: ATPase GET3 (Saccharomyces cerevisiae), Q12154 (parent)
chain: MDLTVEPNLHSLITSTTHKWIFVGGKGGVGKTTSSCSIAIQMALSQPNKQFLLISTDPAHNLSDAFGEKFGKDARKVTGMNNLSCMEIDPSAALKDMNDMAVSRANNNGSDGQGDDLGSLLQGGALADLTGSIPGIDEALSFMEVMKHIKRQEQGEGETFDTVIFDTAPTGHTLRFLQLPNTLSKLLEKFGEITNKLGPMLNSFMGAGNVDISGKLNELKANVETIRQQFTDPDLTTFVCVCISEFLSLYETERLIQELISYDMDVNSIIVNQLLFAENDQEHNCKRCQARWKMQKKYLDQIDELYEDFHVVKMPLCAGEIRGLNNLTKFSQFLNKEYNPITDGKVIYELEDKE

Variants of: B1
Settings: with sc61b_human SEC61B

Row | effect of a mutation on the interaction | Variant
1 | decreasing interaction | C285S;C288S
